Assay results from patent US20230040065A1 (Janssen / Centocor, published 2023).
One block for each binder: values may come before it.

Experiments:
recombinant human TNFα [1] = target: T1, recombinant human TNFα (human, UniProt P01375 77-233, 125I label in the receptor binding assay); experiment: cell-based or functional assay
recombinant human TNFα [2] = target: T1, recombinant human TNFα; experiment: inhibition of 125I-TNFα binding to plate-coated p55-sf2, hybridoma supernatants
Method: (§1) 50:1 of p55-sf2 at 0.5:g/ml in PBS was added to Optiplates to coat the wells during a one-hour incubation at 37° C. Serial dilutions of the eight TNV cell supernatants were prepared in 96-well round-bottom plates using PBS/0.1% BSA as diluent. […] The mixture was preincubated for one hour at RT. The coated Optiplates were washed to remove unbound p55-sf2 and 50:1 of the ¹²⁵I-TNFα/cell supernatant mixture was transferred to the Optiplates. After 2 hrs at RT, Optiplates were washed three times with PBS-Tween. […] of Microscint-20 was added and the cpm bound determined using the TopCount gamma counter.
A simple binding assay was done to determine whether the eight TNV mAbs contained in hybridoma cell supernatant were capable of blocking TNFα binding to receptor. The concentrations of the TNV mAbs in their respective cell supernatants were first determined by standard ELISA analysis for human IgG.

recombinant human TNFα [3] = target: T1, recombinant human TNFα; experiment: inhibition of 125I-TNFα (5 ng/ml) binding to plate-coated p55-sf2; hybridoma supernatant preincubated with 125I-TNFα, cpm bound counted
Method: Varying amounts of hybridoma cell supernatants containing known amounts of TNV mAb were preincubated with a fixed concentration (5 ng/ml) of ¹²⁵I-labeled TNFα. […] The amount of TNFα that bound to the p55 receptor in the presence of the mAbs was determined after washing away the unbound material and counting using a gamma counter. Although eight TNV mAb samples were tested in these experiments, for simplicity three of the mAbs that were shown by DNA sequence analyses to be identical to one of the other TNV mAbs (see Section 5.2.2) are not shown here. Each sample was tested in duplicate. The results shown are representative of two independent experiments.
as §1

T1 sequence (P01375 77-233 limits assumed): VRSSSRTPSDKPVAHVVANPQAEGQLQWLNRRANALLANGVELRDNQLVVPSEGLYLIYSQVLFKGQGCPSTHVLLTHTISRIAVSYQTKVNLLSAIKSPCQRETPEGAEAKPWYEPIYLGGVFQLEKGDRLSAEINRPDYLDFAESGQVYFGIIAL

neutralizing TNFα bioactivity (in vitro) (recombinant human TNFα [1]): 4 fold (against TNV14)
fold better at blocking TNF binding to p55-sf2, against TNV118 and TNV14 (recombinant human TNFα [2]): ~4 fold
IC50 (read off the curve) (recombinant human TNFα [3]): ~4 ng/mL
B1: TNV148 (GenTNV148.26.12) (antibody, human IgG1, kappa, V domains shown)
VH: QVQLVESGGGVVQPGRSLRLSCAASGFIFSSYAMHWVRQAPGNGLEWVAFMSYDGSNKKYADSVKGRFTISRDNPKNTLYLQMNSLRAEDTAVYYCARDRGIAAGGNYYYYGMDVWGQGTTVTVSS
VL: EIVLTQSPATLSLSPGERATLSCRASQSVYSYLAWYQQKPGQAPRLLIYDASNRATGIPARFSGSGSGTDFTLTISSLEPEDFAVYYCQQRSNWPPFTFGPGTKVDIKR
notes: Hybridoma-derived fully human IgG1 kappa mAb (G1m(z)); also called C420A

fold better at blocking TNF binding to p55-sf2, against TNV118 and TNV14 (recombinant human TNFα [2]): ~4 fold
B2: TNV86 (GenTNV86.14.34) (antibody, human IgG1, kappa, V domains shown)
VH: B1 VH
VL: B1 VL
notes: Hybridoma-derived fully human IgG1 kappa mAb; also called C417A
